The values that follow come from US9599605 (BOSTON MEDICAL CENTER, dated 2017).

Test [1] deals with Endogenous mouse STIM1 (mouse) (UniProt P70302). As to the kind of experiment: cell-based or functional assay.
Test [2] addresses T1, Endogenous STIM1 from extracts of Jurkat T lymphocytes (human, UniProt Q13586 23-685).
T1 construct: Prey protein in a cell lysate, detected by Western blot
As to the kind of experiment: pull-down on SNAP-immobilized bait, Western blot. As for the experimental part: (§1) A: with full-sized original images of immunoblots (B and C).
(§2) The cells were harvested 48 h after transfection, lysed on ice in lysis buffer (25 mM Tris-HCl, pH 7.5, 150 mM NaCl, 0.5% NP-40, 5% glycerol, 2 mM DTT, 1×HALT Protease inhibitors cocktail (Pierce), 1 mM PMSF) and the extracts were cleared by centrifugation for 15 min at 16,000 g at 4° C. Each SNAP-tagged protein was covalently immobilized by incubating ~800 µL of the extract with 25 µL bed volume of SNAP Capture Resin (New England Biolabs), equilibrated with Resin Wash Buffer (RWB; 25 mM Tris-HCl, pH 7.5, 150 mM NaCl, 5% glycerol), for 16 h at 6° C. Control sample of each extract was incubated under the same conditions in the absence of the resin. Following immobilization, the resin was collected in the mini spin column (Pierce), washed 5 times on ice with 600 µL of RWB, combined with the prey protein extract, and incubated with orbital mixing at ~600-800 rpm for 6 h at 4° C.
On the technique in general: A western blot detects proteins with antibodies after separation by electrophoresis.

For test [3], the target named is T2, Overexpressed ^YFPSTIM1 from extracts of FreeStyle 293-F cells (UniProt Q13586 23-685).
T2 construct: not shown: YFP of the YFPSTIM1 construct (gift from Dr. T. Meyer)
As to the kind of experiment: pull-down on SNAP-immobilized bait, Western blot. The method, then: as §1, §2

Chain of Endogenous mouse STIM1 (mouse) (P70302 23-685 limits assumed): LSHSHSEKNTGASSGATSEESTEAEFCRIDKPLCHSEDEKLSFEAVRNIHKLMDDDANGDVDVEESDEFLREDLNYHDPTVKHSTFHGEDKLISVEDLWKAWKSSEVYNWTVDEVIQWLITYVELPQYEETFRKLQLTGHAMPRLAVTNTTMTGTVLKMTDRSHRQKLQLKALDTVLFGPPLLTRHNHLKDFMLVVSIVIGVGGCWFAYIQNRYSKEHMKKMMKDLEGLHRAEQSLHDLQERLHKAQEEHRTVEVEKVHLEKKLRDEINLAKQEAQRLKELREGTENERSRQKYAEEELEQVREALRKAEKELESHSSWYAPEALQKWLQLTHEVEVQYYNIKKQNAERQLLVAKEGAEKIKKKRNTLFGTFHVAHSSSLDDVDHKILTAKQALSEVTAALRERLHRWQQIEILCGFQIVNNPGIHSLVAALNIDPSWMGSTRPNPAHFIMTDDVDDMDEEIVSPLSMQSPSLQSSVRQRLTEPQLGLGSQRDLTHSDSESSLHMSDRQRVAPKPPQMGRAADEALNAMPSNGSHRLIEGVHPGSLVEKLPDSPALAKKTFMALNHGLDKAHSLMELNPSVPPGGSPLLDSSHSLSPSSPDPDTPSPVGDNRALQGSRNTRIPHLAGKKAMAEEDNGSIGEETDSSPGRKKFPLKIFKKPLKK
T1 sequence (Q13586 23-685 limits assumed): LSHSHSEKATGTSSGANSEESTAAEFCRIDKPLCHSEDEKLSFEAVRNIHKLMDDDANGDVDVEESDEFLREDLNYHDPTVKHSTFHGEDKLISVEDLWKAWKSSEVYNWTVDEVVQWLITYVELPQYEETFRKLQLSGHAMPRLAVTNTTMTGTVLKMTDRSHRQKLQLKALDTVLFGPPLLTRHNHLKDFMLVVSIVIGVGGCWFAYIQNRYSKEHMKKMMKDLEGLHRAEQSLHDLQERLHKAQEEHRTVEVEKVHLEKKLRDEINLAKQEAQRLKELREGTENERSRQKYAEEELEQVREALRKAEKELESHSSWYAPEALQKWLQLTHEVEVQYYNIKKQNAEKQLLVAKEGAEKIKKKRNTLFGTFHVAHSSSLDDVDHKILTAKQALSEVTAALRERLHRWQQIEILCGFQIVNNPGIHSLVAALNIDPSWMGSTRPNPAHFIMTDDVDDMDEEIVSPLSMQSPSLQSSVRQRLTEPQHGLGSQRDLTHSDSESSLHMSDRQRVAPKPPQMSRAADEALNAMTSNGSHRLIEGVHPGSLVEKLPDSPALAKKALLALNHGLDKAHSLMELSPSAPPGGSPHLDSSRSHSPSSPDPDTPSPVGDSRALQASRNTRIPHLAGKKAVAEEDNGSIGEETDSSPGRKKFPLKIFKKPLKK
T2 sequence (Q13586 23-685): as the sequence (Q13586 23-685 limits assumed) above

In test [1], “N-terminally truncated endogenous mouse PLA2g6(L) of KO^Ex2 mice (from UniProt P97819 179-807) (enzyme)” returned a peak of Ca^2+ release caused by ionomycin in MEFs from KO^Ex2 mice compared to WT of 60%.

B1: C-terminally SNAP-tagged N-terminally truncated human PLA2g6(L)^179-806 (enzyme)
chain: MDVTDYKGETVFHYAVQGDNSQVLQLLGRNAVAGLNQVNNQGLTPLHLACQLGKQEMVRVLLLCNARCNIMGPNGYPIHSAMKFSQKGCAEMIISMDSSQIHSKDPRYGASPLHWAKNAEMARMLLKRGCNVNSTSSAGNTALHVAVMRNRFDCAIVLLTHGANADARGEHGNTPLHLAMSKDNVEMIKALIVFGAEVDTPNDFGETPTFLASKIGRLVTRKAILTLLRTVGAEYCFPPIHGVPAEQGSAAPHHPFSLERAQPPPISLNNLELQDLMHISRARKPAFILGSMRDEKRTHDHLLCLDGGGVKGLIIIQLLIAIEKASGVATKDLFDWVAGTSTGGILALAILHSKSMAYMRGMYFRMKDEVFRGSRPYESGPLEEFLKREFGEHTKMTDVRKPKVMLTGTLSDRQPAELHLFRNYDAPETVREPRFNQNVNLRPPAQPSDQLVWRAARSSGAAPTYFRPNGRFLDGGLLANNPTLDAMTEIHEYNQDLIRKGQANKVKKLSIVVSLGTGRSPQVPVTCVDVFRPSNPWELAKTVFGAKELGKMVVDCCTDPDGRAVDRARAWCEMVGIQYFRLNPQLGTDIMLDEVSDTVLVNALWETEVYIYEHREEFQKLIQLLLSP
modifications: covalently immobilized on SNAP Capture Resin through the SNAP tag ; Covalently immobilised on SNAP Capture Resin through the C-terminal SNAP tag, which is not in the letters
notes: Mimics the N-terminally truncated protein expected in KO^Ex2 mice; not shown: C-terminal SNAP tag and the vector linker of pSNAP-tag(m) (New England Biolabs)
For B1, the binding result in test [2] and in test [3] was “no binding” throughout.
